According to PMC3557450:
pKd: −log10 of the molar value.

Target: soluble recombinant pMHC II I-E^d/λ2^315 (not stated | mouse)
Assay: SPR

soluble scTCR Vαβ 4B2A1 mutant PRS (L115P^linker/K199R^Vβ/L214S^Vβ)
pKd: 5.15

soluble scTCR Vαβ 4B2A1 mutant PS (L115P^linker/L214S^Vβ)
pKd: 5.24
